The Human Domainome abundance scans (Beltran et al. 2025)

B1: Mineralocorticoid receptor, residues 600 to 675; numbered along this chain, P08235 (parent)
chain: SKICLVCGDEASGCHYGVVTCGSCKVFFKRAVEGQHNYLCAGRNDCIIDKIRRKNCPACRLQKCLQAGMNLGARKS

Variants of: B1
Assay: abundance fitness (aPCA) (normalised: wild type 0, dead -1); higher = more abundant; growth selection in yeast, the domain comes from the species named
Conditions: Homo sapiens

Abundance fitness, by site and new letter:
S12: N 0.205; L 0.068; V -0.106; W -0.191; R 0.004; Y 0.096; Q -0.019; K -0.124; M 0.071; P -0.008
C14: E -0.012; N -0.047; R -0.062; Q 0.013; D -0.011; L -0.103; P -0.072; F -0.146; H -0.003; W -0.049; M 0.015; Y -0.069; V -0.008; A -0.027; G -0.077; T -0.09
A31: M 0.474; E -0.022; G 0.001; H -0.616; F -0.104; V 0.194; S -0.022; L -0.553
C24: K -1.03; A -0.983; S -0.867; E -1.03; P -0.878; R -0.855; W -1.11; M -1.04; N -0.632; D -0.252; V -1.01; Q -1; L -0.581; H -0.67
Y16: K -0.081; V 0.013; F -0.053; Q -0.068; R -0.075; T -0.027; S -0.097; N -0.147; H -0.022; I -0.213; A -0.039; W 0.024; D -0.025; C -0.054; P -0.125; G -0.061; L -0.104
R30: W -0.29; P 0.293; Y -0.121; H 0.043
S23: T -0.164; G 0.009; W -0.193; H -0.143; K -0.007; N 0.051; Q -0.013; E 0.003; A -0.125; M -0.085; F -0.168; I -0.42; P 0.026; Y -0.038; C -0.253; L -0.104; D 0.01
F27: T -0.638; M -0.861; K -0.924; C -0.801; E -0.961; L -0.65; P -0.761; Q -0.847; R -1.15; D -0.676; V -0.591; H -0.427; G -0.827; I -0.608; W -0.223; Y -0.33; A -0.434
K29: D 0.007; Q -0.003; L -0.072; V -0.095; H -0.002; W -0.085; F -0.167; T -0.012; R -0.021; P -0.076; S -0.04; M -0.04; G -0.048; C -0.142; E -0.105; A 0.016; N -0.109
T20: W -0.325; N 0.064; S -0.017; F -0.351; D -0.49; P -0.691; V 0.032; E -0.522; G -0.067; H -0.186; L -0.17; Q -0.244; I -0.082; K -0.727; A -0.072; R -0.75; M -0.194; C -0.062
H15: S -0.075; E -0.033; R -0.136; I -0.131; Q -0.12; M -0.059; A -0.062; W 0.029; D -0.119; C -0.152; L -0.096; V -0.103; F 0.023; P -0.066; K 0.032; Y -0.057; T -0.11; N -0.092
G13: Y -0.259; R 0.028; H -0.016; A -0.111; W -0.268; P -0.157; V -0.092; M -0.035; K 0.019; I -0.146; F -0.047; S -0.033; N 0.043; Q 0.032; T 0.016; L -0.073; C -0.407
V19: Q -0.02; Y -0.247; T -0.113; E 0.032; I -0.086; M 0.115; F 0.047; A 0.029; K 0.007; R -0.019; S 0.038; P 0.001; G -0.082; C -0.108; N 0.112; W -0.058; D -0.008; H -0.091
K25: Q -0.006; R -0.051; A -0.065; V -0.035; S -0.033; I -0.069; C -0.022; P -0.058; T -0.105; G -0.051; W -0.083; F -0.112; D -0.087; M -0.018; E -0.01; H -0.128; N 0.084
G17: E -0.007; C -0.049; N -0.126; S -0.044; P -0.175; R -0.046; T -0.073; D -0.031; H -0.208; L -0.142; A -0.108; V -0.228; Q -0.065; F -0.121; I -0.24; K -0.054; W -0.169; M -0.055
F28: M -0.101; A -0.263; W 0.037; R -0.898; Q -0.582; P -1.21; D -0.782; K -0.856; Y -0.095; H -0.445; C -0.364; V -0.322; N -0.647; S -0.361; E -0.749; G -0.647
V26: I 0.031; R 0.033; D 0.024; L -0.049; N -0.123; E -0.022; Q 0.001; H -0.03; W 0.009; C -0.1; A -0.044; Y 0.005; M -0.058; K 0.008
V32: M 0.114; I 0.019; R -0.095; D -0.035; Q -0.017; E -0.004; K -0.004; W -0.24; Y -0.1; P -0.682; H -0.158; A 0.023; F -0.013; N -0.08; G -0.228
C21: A -0.977; E -0.854; P -1.05; V -1.11; F -0.515; K -1.25; Q -0.567; Y -0.731; G -1.03; R -0.962; W -1.22; I -0.803; M -0.969; T -1.22
E33: P -0.128; N -0.089; F -0.137; A -0.28; K 0.044; S 0.008; H -0.077; Q -0.039; L -0.109; I -0.124; G 0.062; M -0.049; T -0.051; D -0.043; C -0.107
V18: H -0.333; F -0.274; I 0.045; K -0.101; D -0.155; G -0.117; M -0.233; W -0.457; R -0.078; C 0.112; Q -0.15; L -0.06; T -0.444; E -0.202; P -0.157; Y -0.284
G22: L -0.094; N -0.236; Q -0.16; K -0.063; A -0.013; H -0.109; Y -0.222; S -0.058; V -0.093; I -0.259; P -0.054; T -0.11; E -0.017; C -0.178; R -0.103; M -0.035; D 0.008; W -0.088
